This assay addresses SARS-CoV-2 main protease 3CLpro (SARS-CoV-2). The experiment in a line: crystal structure.

As a reminder, the stoichiometry N is the number of molecules, sites or subunits per partner or assembly.

Regarding “SARS-CoV-2 main protease 3CLpro (enzyme)”, the stoichiometry N was 2.

For the origin of these results see doi:10.1101/2020.08.31.274639.
